Measured values published in patent US8455447B2, “Modified therapeutic agents” (priority 2002, dated 2013).
Read-outs that look alike come from different tables or passages of the source. Ends that are not written are not given here.

Tests used:
Format in all cases: cell-based
[1] = test system: sheep erythrocytes; experiment: Anti-haemolytic assay: classical pathway mediated haemolysis of sheep erythrocytes, absence of albumin; conditions: No BSA; non-stick plates; Example 3; read-out: IH50 (the source's name)
Method: The Anti-complement activity of the modified SCR1-3 agents was measured by classical pathway mediated haemolysis of sheep erythrocytes.
Step 1—The Dilution Plate
7 wells of each of 9 lanes, missing the uppermost well, on a flat-bottomed microtitre plate were filled with 200 μL of diluent (0.100 M Hepes, 0.150 M NaCl, 0.100% gelatin, adding NaOH to pH 7.4).
Into the uppermost wells, the required volume of each test/control sample was aliquotted, immediately followed by enough diluent to make the total volume up to 300 μL, to ensure a final concentration of 1.2 μM.
Using a multichannel Gilson pipette, all 9 top wells were mixed and 100 μL were transferred from these wells to the corresponding wells in 2nd row. […]
After incubation the plates were centrifuged at 1600 rpm for 3 min and the Nescofilm removed. 150 μL of supernatant from each well of the two plates was then transferred into the corresponding wells of two new microtitre plates and the absorbance of each well measured at 405 nm using a plate reader.
% inhibition was calculated using the following formula:
[formula] wherein: • Ao=the mean value of the absorbances in lane 1 • Amax=the mean value of the absorbances in lane 2 • t=the mean of the two absorbance values for each sample at any given concentration. […]

[2] = test system: sheep erythrocytes; experiment: Anti-haemolytic assay: classical pathway mediated haemolysis of sheep erythrocytes, presence of bovine serum albumin; conditions: 40 mg/ml BSA (fatty acid free); non-stick plates; Example 3; read-out: IH50 (the source's name)
Method: Anti-Complement Activity of Acylated Peptide/APT154 Conjugates in the Presence of Bovine Serum Albumin (BSA)
7 wells of each of 4 lanes, missing the uppermost well, on a flat-bottomed microtitre plate were filled with 200 μL of the BSA/diluent solution. Into the uppermost wells, the required volume each test/control sample (APT3328, APT33330, APT33331 and APT070) was aliquotted, immediately followed by enough BSA/diluent solution to make the total volume up to 300 μL, to ensure a final concentration of 1.2 μM.
These 1.2 μM wells were then diluted across a 3 log dilution gradient and the rest of the assay performed as for the peptide/APT154 conjugates. The BSA diluent solution was used instead of pure diluent except for the Ao lane of the reaction plate, for which pure diluent (50 μL) and the BSA/diluent solution (50 μL) were aliquotted. The whole assay was repeated.
[…] In the Ao lane of the reaction plate, for which pure diluent (50 μL) and the BSA/diluent solution (50 μL) were aliquotted.
Multiple anti-haemolytic assays were performed on the reaction mixture of more than one batch of APT3147, in the presence and absence of fatty acid free bovine serum albumin (BSA) at both 4 mg/ml and 40 mg/ml, on non-stick plates.

[3] = test system: MAC formation on guinea pig erythrocytes; experiment: Reactive lysis system: inhibition of MAC formation on guinea pig erythrocytes; conditions: for IC50: read-out: IH50 (concentration of protein required to achieve 50% inhibition of lysis)
Method: The ability of APT2439, APT3073 and APT3280 to inhibit MAC formation on guinea pig erythrocytes, was tested in a reactive lysis system. The effect of human albumin (HSA) on this activity was also investigated. Test samples were prepared at a range of concentrations in the presence or absence of 8 mg/ml fatty acid free HSA (Sigma, UK). 50 μL of these dilutions was added to 50 μL of a 5% suspension of guinea pig erythrocytes in PBS/0.1% gelatin, and incubated for 30 minutes at 37° C. 10 μL of human C5b6 complex (C5b6 was partially purified from acute phase serum) in PBS containing 15 mM EDTA and 0.1% gelatin, was added to the guinea pig erythrocyte suspension. 40 μL of normal human serum, diluted in PBS containing 15 mM EDTA and 0.1% gelatin was added as a source of C7, C8 and C9, and the suspension was incubated for 1 hour at 37 degrees Celsius. (The concentrations of C5b6 and normal human serum required to achieve about 80% lysis of guinea pig erythrocytes was pre-determined by titration.) The reaction mixtures were centrifuged for 5 minutes at 1000×g and the degree of haemolysis was determined by measuring the absorbance of the supernatant at 410 nm. To determine background lysis, a control reaction was prepared without serum. To determine maximal lysis, a control reaction containing no inhibitor (or test sample) was prepared. The percentage inhibition of haemolysis was determined for each protein at each concentration. An IH50 value (the concentration of protein required to achieve 50% inhibition of lysis) was determined for each protein in the presence and absence of HSA.

Molecule	IC50 [1] [nM]	IC50 [2] [nM]	IC50 ([3]; Presence of HSA (2.7 mg/ml)) [nM]	concentrations required to achieve complete inhibition of haemolysis ([3]; absence of HSA)	IC50 ([3]; absence of HSA) [nM]	decrease in potency in the presence of HSA ([3]; presence of HSA)	increase in potency compared to APT2439 ([3]; absence of HSA) [log]	decrease in potency compared to its potency in the absence of HSA ([3]; presence of HSA, final concentration 2.7 mg/ml) [log]
APT3147: bismyr-GSSKSPSKKKKKKPGDC conjugated to SCR1-3; SEQ ID NO: 26; two myristoyl groups (not fully specified (N-terminus); printed as bismyr-GSSKSPSKKKKKKPGDC; also: two myristoyl groups (bismyr-), places not given here, conjugated to SCR1-3) [bismyr-… conjugated to SCR1-3; two myristoyl groups]	2.2	2.2	–	–	–	–	–	–
APT2439: Recombinant human CD59 (lacking the GPI anchor), with an amino-terminal methionine and a carboxy-terminal cysteine, expressed in E. coli (protein) MLQCYNCPNPTADCKTAVNCSSDFDACLITKAGLQVYNKCWKFEHCNFNDVTTRLRENELTYYCCKKDLCNFNEQLENC	–	–	400	mM concentrations	600	did not demonstrate any decrease in potency	–	–
APT3280: disulphide conjugate of APT2439 and APT3146 (thiopyridylated bisMyr-KSSKSPSKKDDKKPGDC) (conjugate) MLQCYNCPNPTADCKTAVNCSSDFDACLITKAGLQVYNKCWKFEHCNFNDVTTRLRENELTYYCCKKDLCNFNEQLENC peptide: KSSKSPSKKDDKKPGDC	–	–	0.08	–	0.1	did not demonstrate any decrease in potency	~4	–
APT3073: disulphide conjugate of APT2439 and APT2258 (Myr-GSSKSPSKKDDKKPGDC (2-SPy)-NH2) (conjugate) MLQCYNCPNPTADCKTAVNCSSDFDACLITKAGLQVYNKCWKFEHCNFNDVTTRLRENELTYYCCKKDLCNFNEQLENC peptide: GSSKSPSKKDDKKPGDC	–	–	6	–	0.8	–	~3	1
